For assay [1], the target named is T1, mouse SIRPA overexpressed on CHO cells (mouse, UniProt P97797 32-513).
T1 construct: also called CHO-muSIRPA
T1 sequence: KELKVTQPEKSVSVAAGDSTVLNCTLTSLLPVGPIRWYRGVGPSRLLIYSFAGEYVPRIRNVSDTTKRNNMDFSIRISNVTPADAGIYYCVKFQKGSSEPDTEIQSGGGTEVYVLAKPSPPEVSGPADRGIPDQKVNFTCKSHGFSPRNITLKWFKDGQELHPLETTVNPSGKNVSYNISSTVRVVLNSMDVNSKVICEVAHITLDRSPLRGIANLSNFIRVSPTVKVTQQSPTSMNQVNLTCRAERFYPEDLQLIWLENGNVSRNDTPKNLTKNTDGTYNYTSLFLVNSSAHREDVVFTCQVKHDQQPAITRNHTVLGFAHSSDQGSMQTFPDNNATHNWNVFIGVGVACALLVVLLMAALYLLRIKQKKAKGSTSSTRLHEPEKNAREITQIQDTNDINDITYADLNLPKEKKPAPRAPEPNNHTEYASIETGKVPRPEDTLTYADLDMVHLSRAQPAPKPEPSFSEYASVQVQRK
The assay is described as follows: flow, CHO-muSIRPA.

The target in assay [2] is T1, mouse SIRPA overexpressed on CHO cells. The experiment in a line: flow, CHO-muSIRPA. This is another data set of the same source.
Another assay addresses T2, Mouse SIRPA D1 Fc (mouse, UniProt P97797 32-150, limits assumed).
T2 sequence: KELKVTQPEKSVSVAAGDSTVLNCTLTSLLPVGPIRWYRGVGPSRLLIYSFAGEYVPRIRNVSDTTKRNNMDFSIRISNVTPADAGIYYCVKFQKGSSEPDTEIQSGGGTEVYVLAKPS
The experiment in a line: ForteBio IgG avid.

Another assay has as its target T3, Human SIRPA D1 Fc (human, UniProt P78324 32-137).
T3 construct: not shown: human IgG1 Fc
The experiment in a line: ForteBio IgG avid.

A further assay has as its target Human SIRPb D1 Fc (human, UniProt O00241 30-148, limits assumed). The experiment in a line: ForteBio IgG avid.
Assay [3] addresses T4, human SIRPA overexpressed on CHO cells (human, UniProt P78324 31-504).
T4 construct: also called CHO-huSIRPA
The assay is described as follows: flow, CHO-huSIRPA.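 Also: Anti-SIRPA antibodies applied at 1 µg/mL for 1 h on ice, binding read by flow cytometry using a PE-labelled secondary antibody.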
Description: Initial characterization of anti-SIRPA antibodies of the present disclosure involved determining their ability to bind cell lines overexpressing human or mouse SIRPA. Cells were harvested, plated at 10⁶/ml in a 96 well plate, washed, and incubated in 100 ul PBS containing 1 ug/ml Mab for 1 hour in ice. Cells were then washed twice and incubated in 100 ul PBS containing 5 ug/ml PE-conjugated secondary antibody for 30 minutes in ice. Cells were washed twice in cold PBS and acquired on a BD FACS Canto. Data analysis and calculation of mean fluorescence intensity (MFI) values or % positive cells was performed with FlowJo® (TreeStar) software version 10.0.7.

The target of assay [4] is human SIRPA-DAP12 chimera on BWZ NFAT-luciferase reporter cells (human, UniProt O43914 62-113, limits assumed). The experiment in a line: cell-based or functional assay.
Assay [5] has as its target T5, human SIRPA Fc fusion antigen (human, UniProt P78324 31-373).
T5 construct: heterologous signal peptide; not shown: human IgG1 Fc
The experiment in a line: ForteBio IgG avid.

Assay [6] concerns the target T6, human SIRPβ1 Fc fusion antigen (human, UniProt O00241 30-371).
T6 construct: not shown: human IgG1 Fc
The experiment in a line: ForteBio IgG avid.

The target of assay [7] is T5, human SIRPA Fc fusion antigen. The experiment in a line: ForteBio Fab monovalent.
Description: (§1) Briefly, ForteBio affinity measurements were performed by loading immunoglobulins (IgGs) on-line onto AHQ sensors. Sensors were equilibrated off-line in assay buffer for 30 min and then monitored on-line for 60 seconds for baseline establishment. For avid binding measurement, sensors with loaded IgGs were exposed to 100 nM antigen (human SIRPA or SIRPβ1 Fc fusion) for 3 min, afterwards they were transferred to assay buffer for 3 min for off-rate measurement. […] Monovalent binding measurements were obtained by loading human SIRPA Fc fusion antigens to AHQ sensor and followed by exposure to 100 nM anti-SIRPA antibody Fab.
(§2) Additional monovalent measurements were made by loading biotinylated human SIRPA monomer to SA sensor followed by exposure to 100 nM Fab in solution. Kinetics data were fit using a 1:1 binding model in the data analysis software provided by ForteBio.
The target of assay [8] is T6, human SIRPβ1 Fc fusion antigen. The assay is described as follows: ForteBio Fab monovalent.
Description: as §1, §2
Assay [9] addresses human SIRPA W68A with C-terminal V5 tag on HEK-293T cells (human, UniProt P78324 31-504). The experiment in a line: flow cytometry, Fab on HEK-293T cells with the mutant.
Description: (§3) Epitope mapping of anti-SIRPA antibodies was performed using an alanine-scanning library created by shotgun mutagenesis of the human SIRPA cDNA sequence.
(§4) Antibodies were digested to generate Fabs, after which cells were incubated with Fabs diluted in 10% normal goat serum (NGS) (Sigma-Aldrich, St. Louis, MO). Prior to library screening, primary Fab concentrations were determined using an independent immunofluorescence titration curve against cells expressing wild type SIRPA to ensure that signals were within the linear range of detection. Fabs were detected using 7.5 μg/ml AlexaFluor488-conjugated secondary antibody (Jackson ImmunoResearch Laboratories, Westgrove, PA) in 10% NGS. Cells were washed twice with PBS and resuspended in Cellstripper (Cellgro, Manassas, VA) with 0.1% BSA (Sigma-Aldrich, St. Louis, MO). In some cases, higher stringency conditions were used, including increased pH, increased temperature, and increased dissociation time. Mean cellular fluorescence was detected using the Intellicyt high throughput flow cytometer (HTFC, Intellicyt, Albuquerque, NM). Fab reactivities against each mutant clone were calculated relative to wild-type SIRPA protein reactivity by subtracting the signal from mock-transfected controls, and normalizing to the signal from wild-type SIRPA transfected controls.
For assay [10], the target named is human SIRPA D40A with C-terminal V5 tag on HEK-293T cells (human, UniProt P78324 31-504). Described as above.
Description: as §3, §4
The target of assay [11] is human SIRPA R54A with C-terminal V5 tag on HEK-293T cells (human, UniProt P78324 31-504). Described as above.
Description: as §3, §4
The target of assay [12] is T7, biotinylated human SIRPA (monomer) (human, UniProt P78324 31-373, limits assumed, biotinylated).
T7 construct: monomer made by IdeS cleavage of a SIRPA Fc fusion; also called recombinant human SIRPA
The experiment in a line: MSD-SET, Fab, equilibrium.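 Also: solution equilibrium titration, free antigen captured on antibody-coated MSD plates and detected by electrochemiluminescence with labeled streptavidin, percent free antigen versus titrated antibody fit to quadratic model for KD.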
Description: Antibodies (20 nM in PBS) were coated onto standard bind MSD-ECL plates overnight at 4° C. or at room temperature for 30 min. Plates were then blocked with 1% BSA for 30 min with shaking at 700 rpm, followed by three washes with wash buffer (PBSF+0.05% Tween 20). SET samples were applied and incubated on the plates for 150s with shaking at 700 rpm followed by one wash. Antigen captured on a plate was detected with 250 ng/ml sulfotag-labeled streptavidin in PBSF by incubation on the plate for 3 min. The plates were washed three times with wash buffer and then read on the MSD Sector Imager 2400 instrument using 1× Read Buffer T with surfactant. The percent free antigen was plotted as a function of titrated antibody in Prism and fit to a quadratic equation to extract the KD. To improve throughput, liquid handling robots were used throughout MSD-SET experiments, including SET sample preparation.

T6 sequence (O00241 30-371 limits assumed): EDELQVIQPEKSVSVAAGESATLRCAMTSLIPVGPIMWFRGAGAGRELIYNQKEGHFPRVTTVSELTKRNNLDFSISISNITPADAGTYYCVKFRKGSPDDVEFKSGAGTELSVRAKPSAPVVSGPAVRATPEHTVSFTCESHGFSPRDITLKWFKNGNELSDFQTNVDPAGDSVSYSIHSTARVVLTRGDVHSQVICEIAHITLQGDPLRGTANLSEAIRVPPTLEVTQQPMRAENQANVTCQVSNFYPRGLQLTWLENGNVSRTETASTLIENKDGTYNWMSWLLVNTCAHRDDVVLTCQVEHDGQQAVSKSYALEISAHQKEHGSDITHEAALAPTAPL
Chain of Human SIRPb D1 Fc (O00241 30-148 limits assumed): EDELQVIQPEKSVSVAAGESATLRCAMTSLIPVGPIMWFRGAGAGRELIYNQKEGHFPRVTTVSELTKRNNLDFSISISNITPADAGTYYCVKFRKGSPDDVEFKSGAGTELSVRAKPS

B1: SA-56 (antibody, V domains shown)
VH: EVQLVESGGGLVKPGGSLRLSCAASGFTFSSYSMNWVRQAPGKGLEWVSSISSSSSYIYYADSVKGRFTISRDNAKNSLYLQMNSLRAEDTAVYYCARGVETYSGPNWFDPWGQGTLVTVSS
VL: DIQMTQSPSSVSASVGDRVTITCRASQGISSWLAWYQQKPGKAPKLLIYAASSLQSGVPSRFSGSGSGTDFTLTISSLQPEDFATYYCQQAIYFPITFGGGTKVEIK
notes: IgG; also called SA-56 (parental)
As to B1, the binding result is given as “no binding (tested: 1 ug/ml)” in [1], “no binding (tested: 100 nM)” in the assay with Mouse SIRPA D1 Fc, “no binding (tested: 100 nM)” with Human SIRPb D1 Fc and “no binding (tested: 100 nM)” in [6]. Also, the figures for the “relative MFI” value in assay [2] and in assay [3] were 0.583 fold over background and 128 fold over background, respectively. Moreover, the Kd in the assay with Human SIRPA D1 Fc turned out to be 2.81 nM; in assay [5] it was 2.04 nM. For the same molecule, the “luminescence of BWZ-huSIRPA reporter cells with SA-56 and plate-bound CD47” value in assay [4] is around 10 fold over background.

B2: SA-56-90 Fab (Fab, V domains shown)
VH: QVQLVESGGGVVQPGRSLRLSCAASGSTFSHYGMSWVRQAPGKGLEWVASIWVDGSNKYYADSVKGRFTISRDNSKNTLYLQMDSLRAEDTAVYYCARGVETYSGPNWFDPWGQGTLVTVSS
VL: DIQMTQSPSSVSASVGDRVTITCRASQGISSWLAWYQQKPGKAPKLLIYAASSLQSGVPSRFSGSGSGTDFTLTISSLQPEDFATYYCQQAIYFPITFGGGTKVEIK
notes: papain Fab; also called SA-90
Turning to B2, the results for the Kd in assay [7] and in assay [12] were 1.11 nM and 0.17 nM, respectively. Also, the binding result in assay [8] is “no binding (tested: 100 nM)”. Moreover, the “Binding Reactivity (% WT), mean” value is 19.3 % WT in [9], 0.4 % WT in assay [10] and 1.7 % WT in assay [11].

B3: SA-56-94 Fab (Fab, V domains shown)
VH: EVQLVESGGGVVQPGRSLRLSCAASGFTFSYYGMSWVRQAPGKGLEWVASIWVDGSNKYYADSVKGRFTISRDNSKNTLYLQMNSLRAEDTAVYYCAVGTETYSGPNWFDPWGQGTLVTVSS
VL: DIQMTQSPSSVSASVGDRVTITCRASQGISSWLAWYQQKPGKAPKLLIYAASSLQSGVPSRFSGSGSGTDFTLTISSLQPEDFATYYCQQAIYFPITFGGGTKVEIK
notes: papain Fab; also called SA-94
Turning to B3, the dissociation constant (Kd) in assay [7] amounted to 3.43 nM; in assay [12], 0.88 nM. The binding result in assay [8] is “no binding (tested: 100 nM)”. For the same molecule, the results for the “Binding Reactivity (% WT), mean” value in [9], in assay [10] and in assay [11] were 25.6 % WT, 0.2 % WT and 2.9 % WT, respectively.

For the origin of these results see patent US20240270866A1 (Alector, published 2024).
